The supplement of paper PMC7125110
± gives the standard error. For part of these data: Fewer inactive variants are shown than the library holds.

B1: glmS ribozyme (parent)
chain: AUAAAAGCGCCAGAACUACAGAAAUGUAGUUGACGAGGAGGAGGUUUAUCGAAUUUUCGGCGGAUGCCUCCAAA

Columns and labels:
Conditions in all cases: with glucosamine-6-phosphate
[1] = variants of: B1; test: kcat; higher = faster cleavage; RNA array
Method in brief: (§1)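 Using a hybridised Cy3 probe at 37 °C, barcoded ribozyme variants transcribed in situ by E. coli RNA polymerase on sequenced MiSeq chips were monitored across tiles imaged over ~14 h. The flow contained glucosamine-6-phosphate from 40 μM to 10 mM in HEPES/KCl/Mg(OAc)2 buffer. Signals were normalised to baseline and to non-cleaving reference variants before per-tile medians were fit to one- or two-exponential decays to yield kobs. Weighted Michaelis–Menten fits across concentrations gave kcat and KM.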

[2] = variants of: B1; test: self-cleavage kobs at 2500 uM GlcN6P; higher = faster cleavage; RNA array
Method in brief: as §1

[3] = variants of: B1; test: self-cleavage kobs at 40 uM GlcN6P; higher = faster cleavage; RNA array
Method in brief: as §1

[4] = variants of: B1; test: self-cleavage kobs at 640 uM GlcN6P; higher = faster cleavage; RNA array
Method in brief: as §1

[5] = variants of: B1; test: KM; higher = weaker cofactor use; RNA array
Method in brief: as §1

[6] = variants of: B1; test: self-cleavage kobs at 160 uM GlcN6P; higher = faster cleavage; RNA array
Method in brief: as §1

[7] = variants of: B1; test: self-cleavage kobs at 10000 uM GlcN6P; higher = faster cleavage; RNA array
Method in brief: as §1

Row | Variant | kcat [1] | self-cleavage kobs at 2500 uM GlcN6P [2] | self-cleavage kobs at 40 uM GlcN6P [3] | self-cleavage kobs at 640 uM GlcN6P [4] | KM [5] | self-cleavage kobs at 160 uM GlcN6P [6] | self-cleavage kobs at 10000 uM GlcN6P [7]
1 | C16A C50A U69C | 3.42e-05 ± 1.5e-05 s⁻¹ | 5.24e-05 ± 2.3e-05 s⁻¹ | – | – | – | – | –
2 | A15U G51C | < 1e-05 s⁻¹ | – | < 1e-05 s⁻¹ | < 1e-05 s⁻¹ | – | – | –
3 | C16U G32A A33G C58U C70G | 3.69e-05 ± 8.5e-06 s⁻¹ | – | – | – | – | – | –
4 | C16G C67U | 0.000669 ± 7.7e-05 s⁻¹ | 0.000504 ± 6.2e-05 s⁻¹ | 4.87e-05 ± 9.4e-06 s⁻¹ | 0.000318 ± 3.4e-05 s⁻¹ | 736 ± 160 µM | 0.000106 ± 1.5e-05 s⁻¹ | 0.000642 ± 8.6e-05 s⁻¹
5 | A15U A64U | 1.4e-05 ± 4.2e-06 s⁻¹ | – | < 1e-05 s⁻¹ | – | – | < 1e-05 s⁻¹ | –
6 | G29C A33U | 2.55e-05 ± 6.2e-07 s⁻¹ | – | – | – | 979 ± 140 µM | – | 2.33e-05 ± 1.2e-05 s⁻¹
7 | C16G G59A C71G | 1.74e-05 ± 4.8e-06 s⁻¹ | – | – | – | – | – | –
8 | C16U C67A | 0.00194 ± 0.0004 s⁻¹ | 0.00166 ± 0.0003 s⁻¹ | 0.000212 ± 2.2e-05 s⁻¹ | 0.00138 ± 0.00017 s⁻¹ | 360 ± 110 µM | 0.0005 ± 6.7e-05 s⁻¹ | –
9 | C16U C67G | 0.000799 ± 5.5e-05 s⁻¹ | 0.000566 ± 6.2e-05 s⁻¹ | 1.87e-05 ± 6.4e-06 s⁻¹ | 0.000229 ± 2.2e-05 s⁻¹ | 1570 ± 190 µM | 7.2e-05 ± 9.4e-06 s⁻¹ | 0.000664 ± 5.4e-05 s⁻¹
10 | G26U G40U | 0.000912 ± 0.00012 s⁻¹ | 0.00144 ± 0.00066 s⁻¹ | 0.000119 ± 2.3e-05 s⁻¹ | 0.000586 ± 0.00016 s⁻¹ | 272 ± 64 µM | – | 0.000883 ± 0.00019 s⁻¹
11 | A15U U45A | 0.0179 ± 0.0054 s⁻¹ | 0.00648 ± 0.0023 s⁻¹ | 0.000298 ± 4.7e-05 s⁻¹ | 0.00219 ± 0.00059 s⁻¹ | 3230 ± 1300 µM | 0.000772 ± 0.00017 s⁻¹ | 0.0145 ± 0.0023 s⁻¹
12 | C16G C58U | 3.48e-05 ± 3.2e-06 s⁻¹ | 3.89e-05 ± 9.2e-06 s⁻¹ | < 1e-05 s⁻¹ | – | – | – | 3.22e-05 ± 5.6e-06 s⁻¹
13 | G29A G38A C67A | 1.79e-05 ± 4.1e-06 s⁻¹ | – | – | – | – | – | –
14 | C16G G66U | 0.000189 ± 5.3e-06 s⁻¹ | 9.99e-05 ± 1.6e-05 s⁻¹ | – | 3.85e-05 ± 1.1e-05 s⁻¹ | 2380 ± 200 µM | – | 0.000152 ± 1.3e-05 s⁻¹
15 | C16U U69A | 0.000112 ± 2.4e-05 s⁻¹ | 0.00022 ± 6.1e-05 s⁻¹ | 7.08e-05 ± 2e-05 s⁻¹ | 9.39e-05 ± 3.7e-05 s⁻¹ | – | 6.03e-05 ± 2e-05 s⁻¹ | 0.000115 ± 2e-05 s⁻¹
16 | C16A G38U | < 1e-05 s⁻¹ | < 1e-05 s⁻¹ | – | – | – | – | –
17 | C16A U30G | 0.000341 ± 4.6e-05 s⁻¹ | 0.000175 ± 2.3e-05 s⁻¹ | – | 6.82e-05 ± 1.2e-05 s⁻¹ | 2530 ± 560 µM | – | 0.000243 ± 9.7e-05 s⁻¹
18 | C16U A42G | 0.0195 ± 0.0085 s⁻¹ | 0.00906 ± 0.0027 s⁻¹ | 0.000669 ± 0.0001 s⁻¹ | 0.00699 ± 0.0019 s⁻¹ | – | 0.00221 ± 0.00057 s⁻¹ | 0.0355 ± 0.0076 s⁻¹
